Patent US20040126882A1, “Regulatable, catalytically active nucleic acids” (priority 2000, published 2004)
Where two headings read alike, the source gives them in different places.

Key:
[1] = system: Cyt 18-dependent population; experiment: Specificity of activation of Cyt18-dependent ribozymes by proteins; type: biochemical; details: Cyt18 denatured by heating or SDS
Protocol: (§1) Protein inactivation. Standard ligation assays were performed as described above, but in the presence of protein samples that had been pre-treated as follows. Cyt18 protein was denatured by heating for 10 min at 70° C. or by the addition of 6% SDS (0.7% SDS in ligation reaction). Lysozyme was heated 10 min at 100° C. or incubated 10 min at room temperature in the presence of 2 mM DTT (0.3 mM DTT final reaction) without inactivating the protein. The protein was successfully inactivated by heating for […] at 70° C. in the presence of 2 mM DTT. Ligation reactions were performed with 1.3 μM protein in 15 μl reactions incubated 5 min at 25° C.

[2] = biological target: group I self-splicing intron; details: cited from earlier work
[3] = system: lysozyme-dependent clones; experiment: Specificity of activation of lysozyme-dependent ribozymes by proteins; type: biochemical
Protocol: as §1

| Molecule | activation of ribozyme catalysis by denatured Cyt18 [1] | Kd for group I self-splicing intron [2] | activation of lysozyme-dependent ribozyme by other proteins [3] | activation of lysozyme-dependent ribozyme by other proteins ([3]; listed as turkey egg white lysozyme) |
| --- | --- | --- | --- | --- |
| Cyt18: tyrosyl tRNA synthetase from Neurospora mitochondria (protein, UniProt P12063 33-669, looked up) Tyrosine--tRNA ligase, …: LRREFGPKYTAKINEAEENWQARAEAIKKGKKQNTWDLFEERGYVKDTAGTKEHIAELMRTRRIGAYVGIDPTAPSLHVGHLLPLMPLFWMYLEGYKAFTLIGGSTAKIGDPTGRLKSRDHLSSSDATMNMTKIHYQLKKLWENVDTQMRARGYEADWARKRGIVNNNHWWNKQPMLEVLRRVGHALRIGPMLSRDTVKNKMTQGDGVSFAEFTYPIMQGWDWFELFYQQGVQMQIGGSDQYGNIISGLEVVKAARESEPDPQERKYVTPKTALDECVGFTVPLLTDSSGAKFGKSAGNAIWLDPYQTSVFDFYGYFVRRSDQEVENLLKLFTFMPISEITKTMEEHIKDPSKRVAQHTLAREVVTLVHGKQEASAAEDQHRMMYTGQMTIPQVSRAKDAATGGDQYKTISDQPVTLNNAPRIDMILPESLIMGKSIGRILYAAGLASSTTEGHKLAAAQGCYVGGAHRAGGENVTMNPDLISFMPVKLWFPGETQRYLINGNLLILRKGKHNVRVIQMVSDVEYAASGQTYPGQSFTGAVRKLNEIMKNLKEKKLTPEEAKNAVNELQKSSQEKQQGQQIIFPEEKSRQKKDMETKLKQEMIASVKTIDGMMDEKPSVRGDGVKKQTQDDRDPYKW | unable to activate | femptomolar range | inactive | – |
| turkey lysozyme: extremely homologous (98%) turkey lysozyme (protein, UniProt P00703 19-147, looked up) Lysozyme C: KVYGRCELAAAMKRLGLDNYRGYSLGNWVCAAKFESNFNTHATNRNTDGSTDYGILQINSRWWCNDGRTPGSKNLCNIPCSALLSSDITASVNCAKKIASGGNGMNAWVAWRNRCKGTDVHAWIRGCRL | – | – | cross-activation | activated |
| lysozyme from human milk: lysozyme from human milk (protein, UniProt P61626 19-148, looked up) Lysozyme C: KVFERCELARTLKRLGMDGYRGISLANWMCLAKWESGYNTRATNYNAGDRSTDYGIFQINSRYWCNDGKTPGAVNACHLSCSALLQDNIADAVACAKRVVRDPQGIRAWVAWRNRCQNRDVRQYVQGCGV | – | – | inactive | – |
